According to the DeepSol protein solubility set:

Experiment: soluble on expression in E. coli; label from the status in PepcDB or PDB records
For “MGSDKIHHHHHHMLTTLAIGNYRSINHLVLPLSQLNLVTGANGSGKSNLYKALRLLAETAQGGVVEALAREGGLDSTWWAGPETSARMRRGEVPIQGQHPSEVRRLRLGFATEDLGFAITLGLPIPLPYPSAFMLDPEIKCEAIWGAGAYRPSSLLVERKNALVRAREGNRWAVLDQHADSGESFFNIVGRPRQAPEIGDLRAFINSWRFYDHFRIDRDAPCRQPQLGTRSPVLHHDGRNLASALQTIIEIGDVEDLEEALNDAFPGSRLEINAPPGGLFSVRLHQHGLLRPLEGAELSDGTLRYLLLMAALLTPRPPSLMVLNEPETSLHADLLPALARLIIRASRRSQVWVVSHSAPLINALAACDGCNVLELEKIQGQTQLRGVGLLDEPLWRWAD”, the “soluble on expression in E. coli” value was “not soluble”. For “MGSDKIHHHHHHMLVYIGNGHYCYSNSTAMFLSSIGENVSPQLVEILTGVGLGAMIEYEKNLYFSMRDPDDGINYALNILGFTAEEHQQASDLDDPFPLLKQQIKQNPVILGPLDMGELTYHPNHKNLNGSDHYVLGYQMDNENIYVQDPAGFPFVPLSLDQFKKAWMAERIPYRKGINKYWSTAKKVVTLDNNEIYERAIDYFKRTYRKFEKVDIGLIGREAICFYADQLLNAPITADTIRHTTFFLFQLSARRANDYAMYFKDRHSHLSVLKTEQAKVFGICHSMSVNKDWKGISEKLMKLADLEDNFRLELLKVGY”, the “soluble on expression in E. coli” value was “not soluble”. For “MGSDKIHHHHHHMLWRLKGVPFVGFDVARVRGLYTSLGDGWTYLNSHQIPQVPERVASGVAAAFRTHAQISEVTSQPIAVDQLEAAREAVASLAGVDPDCVVLGPTRQFLAHTLARGLGGFVRRKAGVVLSRADADWLTAPFRSLDGVFSWAEPDLGTGMLPDWQYEKLVDGSTRLVVLSAAHPLLGTVAPVGKIVDKVRARSRAWVLVDATTYAAYRPLRLDEWEADIVMLDLGELGGPQISALIFRDTSMFPRLDRTVPLELPASSLPHGLLGGVPNLVRHLGNLDENAPSVVEAMGEMAKFHKGLFEHLVESLEGLHAVHIVGISGDAAGQDAAFLDRVPRLTFTMEGVPADMVYRRLVDNRLITTVSPADPLLEAMGVTEAGGSITIGLSPFSTYYEVDQLTRVLASLA”, the “soluble on expression in E. coli” value was “not soluble”. For “MGSDKIHHHHHHMLYNTDFLSRLTQGVKYLSSAWGLSSEAKLTLLTISENATFRIADENSGRNLIVRVHRPDYHTEAEILSELAWIDALRQDGVVVTPRPISANDGSLLQIFSDGETMRHAVAFEYMAGKEPDAESDLVHWYRTLGEINAKLHAHSRRWTRPENFIRKTWNFNRILGNGAYWGDWRDALGLKPDGKSVLERTHALLETQTSAYGYGEERFGLVHCDMRAANLLVDGDRLGVIDFDDCGLSWFAYDFAAAISFMEHEPFIPDLMAAWLEGYRRVAPLDAQHEAALPMFIMLRRMQLTAWIASHAETPTAQSMGTAYTDGTVALAECYLAEHR”, the “soluble on expression in E. coli” value was “not soluble”. In the case of “MGSDKIHHHHHHMMDFYIKQIIIHQFSPNDTELVLSDTPLTLTPRIDDYFRKKLSKVFSDEAKRGYFGEDNVFMSHLQDDLYVSSCQIAQLWKEEFVISEDQKTNDLVFIQFDKDGMEHFAFLRISLKEQFAHVSENQEQPITITQNNLPSAAQTPDEALVVNKSSKQYYLIEKRIKHNGSFANYFSENLLQVQPEQSVKKSIKMVEQTAQKIAENFNKDDFSFQSKMKSAIYKNLEEEQELSPEKLADQLFDDNLTARLTFVDELKDAIPGPVQVSDIDHSRQIKKLENQKLSLSNGIELIVPNNVYQDAESVEFIQNPDGTYSILIKNIQDIQNK”, the “soluble on expression in E. coli” value is reported as “not soluble”. In the case of “MGSDKIHHHHHHMMDWLYRYPPLYPGILLKRYKRFFADVQLTSGEIVTAHCPNTGPMTGVSTPQSAVQLSKSDNLNRKLAYTLELIQVHDNEPTWVGINTFLPNRVVKLALAKYLFPELGEYSQIKGEVVYGLDKKSRVDFFLTGSDEERPIYLEVKNTTLSEGRLALFPDTETTRGQKHLRELMALLPLTRAVMLYFINRGDCTEFSPGDRTDPVYGKLLRDAIALGLEVLPCRFDISPEGIRYLGLAKLKI”, the “soluble on expression in E. coli” value is reported as “not soluble”. With “MGSDKIHHHHHHMMFLPEQISKLNELETLVFDFIIKSPEEVQQMTIRDLASQAHVSTSTIVRLCTKLGFEGWSDLKFYLKNQLKEKTPEEQHYDNMLEFNMFLRRMNTDNYQAKLNNAAQMIAKADYTVFLGLGTSGSLSEYATKYFVNTGLRSFVISDPFQAVQVQGMGNVVAVIMSVSGETEQVVNKELEFKAGGAKIISITNNEDCTVAKLADYQLSYNLVNEWSKQYPLGNLTTQLPVLAILEILAHKSIDYHLKK” the “soluble on expression in E. coli” value was “not soluble”. For “MGSDKIHHHHHHMMGLKAHAMVLEKFNQPLVYKEFEISDIPRGSILVEILSAGVCGSDVHMFRGEDPRVPLPIILGHEGAGRVVEVNGEKRDLNGELLKPGDLIVWNRGITCGECYWCKVSKEPYLCPNRKVYGINRGCSEYPHLRGCYSSHIVLDPETDVLKVSEKDDLDVLAMAMCSGATAYHAFDEYPESFAGKTVVIQGAGPLGLFGVVIARSLGAENVIVIAGSPNRLKLAEEIGADLTLNRRETSVEERRKAIMDITHGRGADFILEATGDSRALLEGSELLRRGGFYSVAGVAVPQDPVPFKVYEWLVLKNATFKGIWVSDTSHFVKTVSITSRNYQLLSKLITHRLPLKEANKALELMESREALKVILYPEG”, the “soluble on expression in E. coli” value was “soluble”. For “MGSDKIHHHHHHMMILIQSRGKMKCKELSEELEVSERQIKSYKMYLEQAGIFINSTPGIYGGYEIDKCNSISLIKLLDSEVSILDMINSQLEYNNDIYKNEFNNIVEKIKAVLNTGEKSDTYMDYFTVQAQRNCDYESEKNKCNEIIRAYTTKHKFWIEYYSLNSGNSERIVHPYGLFNYKSDTYMVAFCEKRFKFIDFKLCRIKDYKVLEEKYNVDKSFSWDEYSKNSIGIYKGEEINVVIKISHPFSTIIKEKVWVNNQQIIEYDDKSIMFKAKMRGYEEIKSWILSMGAYVEVVEPDRLRNDILSEIEKMKKIY”, the “soluble on expression in E. coli” value was “not soluble”. For “MGSDKIHHHHHHMMKKTHYNILMVNLPFSGHTNPTLGLAQILVQLGHNVTYINAPDWQSKIERTGAHFVPYDHYPDSLSERQKKVKSWSAAYQTVLRMGKDYDCLIYEMLFFPGKALADRLNIPAYRLFSTFSLNEKILTEFGKTGGFYLTSIFRFTFLRHLLSRKLQRTFQLAYDDLAKEISLNTPELNFTYTVREFQIDADTFDENHYQYVGPSINRPVEPPFDFTPFKNPIIYISLGTLLNRSVSFFKKCIKAFENEPYSIIISLGNRIKKEQLGTMPANVHLYSFVPQLQILERASLFLTHGGMNSVNEAIYYGCPMLVIPVGNDQPRVAQQVADLHLGKCLKCHNLNPQEIKQAAHTILKDSSYKNTIWHFQKIAQTAGGNTLIAQTIIKDLQTKP”, the “soluble on expression in E. coli” value was “not soluble”. In the case of “MGSDKIHHHHHHMMKSLPHMIGNEIKRIRKEKKMTQKELCDGICSQAEISKIENGRNSPTIDLLQQISKRLRVPLSLLFRDQLESDAFREADNHLSSLFREQKYQEMRLELLRTDAIHHNEIRLLKAYFTILLEVKTEKIDYRTASALLSRLTDQEDIWYESPKMFIRIKMAISNLHVENEQYHLAEKVYEELEELTYDTEELKKQLIKVYYNHSQLLTYEKKYKAGLKITEKGLSYSLSLNDASFIAHFYYQRGYYHEVMLGDDSSPAQRDYTISYALFRAFHLHTYEEIVLKGKERFLLFTF”, the “soluble on expression in E. coli” value is reported as “not soluble”. In the case of “MGSDKIHHHHHHMMNLSELAPDYIRAIQPYQPGKPISELVRDLGLNKDEVVKLASNENPLGTSPLAKEAMIQALNESARYPDGSGFELKAALSERLGMPADQIVLGNGSNDVLELATRIFLHPDSTAIYSQYAFAIYPLLAQAVGARGIAVPARNYGHDLEAMLAAVTPETRIIFIANPNNPTGTLCDARDLLRFMERVPQDVLVILDEAYDEYLPEANKANSIAWLKNFQNLVITRTFSKAYGLASVRVGFALAHADIANLMNRIRQPFNVNSIGLAAAQAALKDVEFVKLAYMTNRTGMQQMTHGLDQLGIEYIPSFGNFVCCHIDGHPANTLKIYRNLLQQGVIVRPLGNYDMLNHLRVTIGIEEENKRFLQALEQALKELD”, the “soluble on expression in E. coli” value is reported as “not soluble”. For “MGSDKIHHHHHHMMPQTSLHQHVMNWAISVPGDKTLKRDIFNNIWITASQRYEYQHLTFMAQGIVELLNTEIGGVDVSIPINLFLQSTEATKYDAEMLDFAQRIVTVKDRQHIALLSENILQKMPYQPDSTSVHTTATQAFQAGQGVCQDHAHVLIAMCRALQLPARYVSGYLFDQNSPHLASHAWAEVFLDNQWYCFDVSNQLFTPKHHIYLAVGRDYLDVAPIRGVREKGGTENMMSVVQVLAC”, the “soluble on expression in E. coli” value was “not soluble”. In the case of “MGSDKIHHHHHHMMPYLAKILLYPVKSLDGVEVEKVGVLASGALQHDREFAIFDERGKFVNGKRHAKIHLLRVQFALFNRTISLQIPGGNSQQVFHLDEERQALEATLSNYFEFAVTLRQNSLMGFPDDTHSPGPTVISTATLTEVASWFPGLSVDEIRRRMRANIEIDGVPAFWEDRLFSEQGDLVSFRVGDVDFFGANPCQRCIVPTRDSYSGEAYPSFQKIFATQRQATLPNWVASSPFNHFYRLSVNTQLPISSAGKILQIGDGVDIFP”, the “soluble on expression in E. coli” value is reported as “not soluble”. For “MGSDKIHHHHHHMMRALYTAATGMRAEQTNVDTIANNLSNVNTTGFKGQRTEFKSLLYQTIQTRSTSGNGDAKPVGAQVGLGTRVAATTSTYTQGPLNSTERPTDFALEGDGFFAVRGTDNQTYYTRNGAFTWSQYGNGQTILTDSQGNPVMDTNGNIIAVPAGVSAEKMSFGEDGAVGYMTAQGNYINLNQRIAVYQFNNPSGLEKQSGSLLAATANSGNPMLEIANPALKSSKVVTGYLEGSNVQVADEMVNLIVAQRAYELNSKAITTADSMLETANNLRR”, the “soluble on expression in E. coli” value was “not soluble”. For “MGSDKIHHHHHHMMVEESLQLQNELLNKLVQGGGLKELVDSAAHFVQREVVIANTSNRVLESTFSEGFSQGEFFAVLPLQPPVPGRVQLQAGEKKAEALVVELSHDAKRLGFLFICDPGADEDNRLKVLIHQARNVFVLELQKKAELLENSRNYQDAFLFDLLYGNIEDNADIIARGKLWGWDLSLPHVVTAFELEDYESYSQDHYLVTTLHDIIQSVAQSLDKTVILMEKNEEVVLALPVEARKRRDFKAYLNMIINQVLAQAEERLAPRVIRVGVGRRYEQPSELFRSYQEAKVAVKLSALLKDKGPIVYFRELGVERILYSHDKQELLEFYREILAELEAQDKQKNELIETLENYLVYHCDLKATADALFLHPNSLRYRLKRIEEILDLDLEDFDTRVSLVIAFKIKHLIHSKERL”, the “soluble on expression in E. coli” value was “not soluble”. For “MGSDKIHHHHHHMNARKGGVDRSRAEAGMADTLFFFHNPKAGGTSVEDALRSLFPDERCCPRIENDATEHAQRAGRYAGFRGYDFYAGHYGFDIYQAVGSGMAAATNFRWPIDRIVSVYRYFHHIVELSDSQVRDPRFRAVRLAKTLCMDDFVTCDDPAVQLHTHDHHFRQLTGSGWSMANEQDLSAAIRLINQMVWFYVCEHPHESLAWAEEAFCRALPEIPRLNITRPDSASETGLSARACRQLILQNERDIVLYQYALERLIAQVTHEPSRLVA”, the “soluble on expression in E. coli” value was “not soluble”. With “MGSDKIHHHHHHMNAWEVNFDGLVGLTHHYAGLSFGNEASTRHRFQVSNPRLAAKQGLLKMKALADAGFPQAVIPPHERPFIPVLRQLGFSGSDEQVLEKVARQAPHWLSSVSSASPMWVANAATIAPSADTLDGKVHLTVANLNNKFHRSLEAPVTESLLKAIFNDEEKFSVHSALPQVALLGDEGAANHNRLGGHYGEPGMQLFVYGREEGNDTRPSRYPARQTREASEAVARLNQVNPQQVIFAQQNPDVIDQGVFHNDVIAVSNRQVLFCHQQAFARQSQLLANLRARVNGFMAIEVPATQVSVSDTVSTYLFNSQLLSRDDGSMMLVLPQECREHAGVWGYLNELLAADNPISELKVFDLRESMANGGGPACLRLRVVLTEEERRAVNPAVMMNDTLFNALNDWVDRYYRDRLTAADLADPQLLREGREALDVLSQLLNLGSVYPFQREGGGNG” the “soluble on expression in E. coli” value was “not soluble”.
